Laboratory results: article PMC11911456, “Investigating synthetic lethality and PARP inhibitor resistance in pancreatic cancer through enantiomer differential activity” (Cell Death Discovery, 2025)

Target: T1, human RAD51 protein (human, UniProt Q06609-1 1-339)
T1 construct: RAD51 recombinase, human, NP_002866, bought from Creative Biomart; This is the RAD51 of the ELISA; source: bought: Creative Biomart
T1 sequence (looked up): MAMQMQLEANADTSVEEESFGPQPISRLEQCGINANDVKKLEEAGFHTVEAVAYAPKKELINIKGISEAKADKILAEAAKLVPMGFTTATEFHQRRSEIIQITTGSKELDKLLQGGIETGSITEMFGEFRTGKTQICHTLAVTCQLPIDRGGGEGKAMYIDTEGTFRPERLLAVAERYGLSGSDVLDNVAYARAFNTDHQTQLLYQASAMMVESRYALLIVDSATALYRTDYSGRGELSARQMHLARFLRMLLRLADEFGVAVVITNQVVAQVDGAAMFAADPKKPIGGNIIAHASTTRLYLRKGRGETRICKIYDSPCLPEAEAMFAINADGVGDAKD
Assay: ELISA; competitive ELISA; BRC4-biotinylated peptide coated on 384-well plates, blocked with 1% BSA/PBS-T, overnight hybridisation with human RAD51; small-molecule compounds added 0.01-100 uM at constant 1% DMSO; detection with anti-RAD51 and HRP-secondary antibodies
Settings: both partners purified

B1: BRC4-biotinylated peptide (peptide)
peptide: KEPTLLGFHTASGKKVKIAKESLDKVKNLFDEKEQ
modifications: biotin on the N-terminus
notes: BRC4 repeat of BRCA2; holds the FxxA motif (BRCA2 residues 1524-1527) and the LFDE motif (BRCA2 residues 1545-1548) as numbered in the introduction; also called biotinylated BRC4 peptide; BRC4 peptide; source: bought: Life Technologies
B1: binds.
